{
  "source": "paper PMC8896805",
  "about": "“Structural insights into ligand recognition, activation, and signaling of the α2A adrenergic receptor” (Science Advances, 2022)",
  "key": {"hybrid G protein Gαqs": {"biological_target": "hybrid G protein Gαqs (UniProt P50148)"}, "hybrid G protein Gαqi": {"biological_target": "hybrid G protein Gαqi (UniProt P50148)"}, "α2AAR F^7.39N mutation": {"system": "α2AAR F^7.39N mutation", "set-up": "method as in PMID 31801060", "settings": "cited from earlier work"}, "α2AAR S^5.46A": {"system": "α2AAR S^5.46A", "settings": "cited from earlier work"}},
  "data": [
    {"compound": "chimeric receptor β2AR-α2A-TM5 (from UniProt P07550 1-220; P08913 233-244; P07550 233-413)", "values": [
      {"measurement": "IP accumulation (IP-One HTRF) in HEK293T cotransfected with receptor and Gαqs; Gs coupling activity, increase against wild-type β2AR", "setting": "hybrid G protein Gαqs", "result": "> 100", "unit": "fold"},
      {"measurement": "IP accumulation (IP-One HTRF) in HEK293T cotransfected with receptor and Gαqi; Gi coupling activity, increase against wild-type β2AR", "setting": "hybrid G protein Gαqi", "result": "> 100", "unit": "fold"}
    ]},
    {"compound": "NC[C@H](O)c1ccc(O)c(O)c1", "note": "[Norepi, norepinephrine]", "values": [
      {"measurement": "activity of Norepi at F^7.39N mutant, in words", "setting": "α2AAR F^7.39N mutation", "result": "completely abolishes the activity"}
    ]},
    {"compound": "CNC[C@H](O)c1ccc(O)c(O)c1", "note": "[epinephrine]", "values": [
      {"measurement": "potency to inhibit forskolin-stimulated cAMP accumulation at S^5.46A, in words", "setting": "α2AAR S^5.46A", "result": "markedly reduced the potency"}
    ]},
    {"compound": "chimeric receptor α2AAR-β2-TM5 (from UniProt P08913 1-232; P07550 221-232; P08913 245-465)", "values": [
      {"measurement": "IP accumulation (IP-One HTRF) in HEK293T cotransfected with receptor and Gαqs; Gs activity, decrease against wild-type α2AAR", "setting": "hybrid G protein Gαqs", "result": 10, "unit": "fold"},
      {"measurement": "IP accumulation (IP-One HTRF) in HEK293T cotransfected with receptor and Gαqi; Gi coupling activity, decrease against wild-type α2AAR", "setting": "hybrid G protein Gαqi", "result": 3, "unit": "fold"}
    ]}
  ]
}
